Experiments:
[1] = biological target: GFP-tagged full-length ORF57 with all three disrupted nuclear localization signals (ORF57 mt1+2+3) (UniProt Q2HR75); test: nuclear translocation assay (fluorescence microscopy of cotransfected cells)
[2] = biological target: the molecule itself; test: crystal structure; spindle-shaped crystal, sitting-drop vapor diffusion at 4°C, 0.1 M BIS-TRIS propane pH 7.0, 0.8 M lithium sulfate; space group P6(4)22, two molecules in the asymmetric unit, 3.5 Å
[3] = COS-1 cells, 50 double-color positive cells counted, parent: 88

Question: Which other: % cells with nuclear translocation [1, 3] does the source give for “FLAG-tagged full-length ORF57 (from UniProt Q2HR75) W292P” here?
Answer: 0%

Question: “FLAG-tagged full-length ORF57 (from UniProt Q2HR75) R325A; R327A” was tested. Which other: % cells with nuclear translocation [1, 3] did it give?
Answer: 4%

Question: With “FLAG-tagged full-length ORF57 (from UniProt Q2HR75) C333S; H423L; C427S; C432S” as the molecule, how does the other: % cells with nuclear translocation ([1]; n=50) read?
Answer: 0%

B1: C-terminal domain (CTD) of KSHV ORF57 (residues 167 to 455) (domain or fragment)
chain: GVSDAVKKLRLPASMIIDGESPRFDDSIIPRHHGACFNVFIPAPPSHVPEVFTDRDITALIRAGGKDDELINKKISAKKIDHLHRQMLSFVTSRHNQAYWVSCRRETAAAGGLQTLGAFVEEQMTWAQTVVRHGGWFDEKDIDIILDTAIFVCNAFVTRFRLLHLSCVFDKQSELALIKQVAYLVAMGNRLVEACNLLGEVKLNFRGGLLLAFVLTIPGMQSRRSISARGQELFRTLLEYYRPGDVMGLLNVIVMEHHSLCRNSECAAATRAAMGSAKFNKGLFFYPLS
notes: KSHV ORF57 (MTA), residues 167 to 455, GenBank ABD28908.1; Crystallised as a dimer (spindle-shaped crystal) and as a monomer (cubic crystal, 4.0 M LiCl); also called ORF57-CTD; source: E. coli BL21 (DE3), purified (Ni-NTA, ULP1 digestion, Superdex 75); not shown: His6, N-terminal, cleaved; SUMO (Smt3 of Saccharomyces cerevisiae), N-terminal, cleaved
Question: For B1, which “stoichiometry N” value [2] is on record?
Answer: 2
